Experimental data: patent CN105524169A (UNIV NANCHANG, dated 2016)

What was measured:
[1] = molecular target: T1, PSMA on LNCaP prostate cancer cells (UniProt Q04609 1-750, limits assumed); experiment: cell ELISA on fixed LNCaP (PSMA+) against MKN45 (PSMA-) cells, HRP-anti-M13, OD450
T1 construct: whole, on cells; Cells fixed with 4% paraformaldehyde before the assay; also called 前列腺特异性膜抗原; LNCaP细胞(表达PSMA)

[2] = molecular target: T2, PSMA胞外区蛋白 (recombinant extracellular region of prostate specific membrane antigen, expressed in HEK-293) (UniProt Q04609 44-750, limits assumed); experiment: indirect phage ELISA, PSMA extracellular region protein coated at 5 μg/mL, HRP-anti-M13 detection
T2 construct: extracellular domain; also called 前列腺特异性膜抗原膜外区; PSMA蛋白
T2 sequence (Q04609 44-750 limits assumed): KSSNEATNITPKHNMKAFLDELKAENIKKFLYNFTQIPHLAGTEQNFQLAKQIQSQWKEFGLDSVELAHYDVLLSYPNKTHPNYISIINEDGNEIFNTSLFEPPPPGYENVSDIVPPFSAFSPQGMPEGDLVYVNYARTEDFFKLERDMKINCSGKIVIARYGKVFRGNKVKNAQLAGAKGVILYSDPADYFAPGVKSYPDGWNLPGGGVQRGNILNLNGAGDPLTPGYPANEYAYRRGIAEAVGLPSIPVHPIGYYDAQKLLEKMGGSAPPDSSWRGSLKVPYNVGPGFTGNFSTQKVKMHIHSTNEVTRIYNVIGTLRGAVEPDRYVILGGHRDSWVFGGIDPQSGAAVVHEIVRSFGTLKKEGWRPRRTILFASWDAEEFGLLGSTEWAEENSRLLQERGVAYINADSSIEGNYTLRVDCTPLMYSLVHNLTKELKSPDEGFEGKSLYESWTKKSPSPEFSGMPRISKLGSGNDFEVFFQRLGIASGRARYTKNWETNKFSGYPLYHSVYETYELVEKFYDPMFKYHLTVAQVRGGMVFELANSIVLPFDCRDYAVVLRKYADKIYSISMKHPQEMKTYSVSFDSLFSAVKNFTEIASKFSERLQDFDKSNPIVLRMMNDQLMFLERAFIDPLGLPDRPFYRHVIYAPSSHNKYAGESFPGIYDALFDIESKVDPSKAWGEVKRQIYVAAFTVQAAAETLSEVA

T1 sequence (Q04609 whole entry): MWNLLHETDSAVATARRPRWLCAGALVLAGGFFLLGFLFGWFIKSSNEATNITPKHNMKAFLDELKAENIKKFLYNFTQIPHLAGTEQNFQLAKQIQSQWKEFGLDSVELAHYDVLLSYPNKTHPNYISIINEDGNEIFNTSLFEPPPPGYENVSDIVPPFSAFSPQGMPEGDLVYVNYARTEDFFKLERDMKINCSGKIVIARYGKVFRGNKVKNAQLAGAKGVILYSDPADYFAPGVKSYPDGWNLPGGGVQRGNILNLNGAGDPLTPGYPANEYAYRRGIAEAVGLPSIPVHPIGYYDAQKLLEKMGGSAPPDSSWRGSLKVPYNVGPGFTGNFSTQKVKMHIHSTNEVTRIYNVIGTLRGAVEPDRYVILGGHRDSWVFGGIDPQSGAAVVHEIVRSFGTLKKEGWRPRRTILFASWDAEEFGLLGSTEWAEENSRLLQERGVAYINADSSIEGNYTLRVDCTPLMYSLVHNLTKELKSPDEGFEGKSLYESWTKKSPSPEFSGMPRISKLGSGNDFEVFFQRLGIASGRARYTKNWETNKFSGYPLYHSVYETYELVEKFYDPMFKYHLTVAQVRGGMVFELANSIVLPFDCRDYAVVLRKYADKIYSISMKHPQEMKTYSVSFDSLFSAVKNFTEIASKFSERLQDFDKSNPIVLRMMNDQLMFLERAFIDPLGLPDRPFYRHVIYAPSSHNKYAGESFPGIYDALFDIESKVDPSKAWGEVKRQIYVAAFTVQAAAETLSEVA

B1: 抗前列腺特异性膜抗原单域重链抗体噬菌体阳性克隆 (phage clone displaying the anti-PSMA single-domain heavy-chain antibody) (VHH)
VHH: QVQLVESGGGLVQAGGSLRLSCAASGRTISRYAVGWFRQAPGKDREFVAGITRSSSLTGYTDSVKGRFTISRDNAENTVYLQMNSLKPEDTAVYYCAGGPGSYKYWGKGTQVTVSS
notes: detected with anti-M13 antibodies; also called 展示本发明所述纳米抗体的噬菌体克隆; not shown: hinge/linker and coat protein fusion are not described
binding result [1]: binds | binding result [2]: binds
